# Results reported in IntAct's records for PubMed 27754869.
# B1: Natural cytotoxicity triggering receptor 3 (Homo sapiens), O14931 (parent)
# chain: MAWMLLLILIMVHPGSCALWVSQPPEIRTLEGSSAFLPCSFNASQGRLAIGSVTWFRDEVVPGKEVRNGTPEFRGRLAPLASSRFLHDHQAELHIRDVRGHDASIYVCRVEVLGLGVGTGNGTRLVVEKEHPQLGAGTVLLLRAGFYAVSFLSVAVGSTVYYQGKCLTWKGPRRQLPAVVPAPLPPPCGSSAHLLPPVPGG
# partner: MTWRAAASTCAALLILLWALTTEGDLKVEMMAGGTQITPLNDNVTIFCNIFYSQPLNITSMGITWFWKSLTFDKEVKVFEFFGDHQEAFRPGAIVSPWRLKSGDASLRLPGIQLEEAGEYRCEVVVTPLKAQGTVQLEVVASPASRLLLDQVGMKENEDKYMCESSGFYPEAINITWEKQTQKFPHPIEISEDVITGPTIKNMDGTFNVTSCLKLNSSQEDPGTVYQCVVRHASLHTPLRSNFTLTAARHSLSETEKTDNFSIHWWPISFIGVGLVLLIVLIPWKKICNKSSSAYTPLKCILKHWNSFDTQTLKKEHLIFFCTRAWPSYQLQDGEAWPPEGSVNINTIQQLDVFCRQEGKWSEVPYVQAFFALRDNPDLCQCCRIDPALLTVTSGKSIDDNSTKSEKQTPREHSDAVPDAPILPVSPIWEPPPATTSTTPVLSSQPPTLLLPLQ
# B2: Natural cytotoxicity triggering receptor 3 (Homo sapiens), O14931 (parent)
# chain: B1 chain
# Variants of: B1
# Conditions: with nr3l1_human NCR3LG1, Q68D85
row,Variant,effect of a mutation on the interaction
1,G135A,decreasing interaction strength
2,Q133A,decreasing interaction strength
3,L142A,increasing interaction strength
4,H131A,decreasing interaction strength
5,V139A,increasing interaction strength
6,P132A,with no effect
7,T138A,decreasing interaction strength
8,L141A,with no effect
9,G137A,with no effect
10,L134A,decreasing interaction strength
11,L140A,increasing interaction strength
12,R143A,decreasing interaction strength
13,K129A,decreasing interaction strength
14,E130A,decreasing interaction strength

# Variants of: B2
# Conditions: with BAG6, P46379-2
# BAG6, P46379-2, sequence (P46379 other isoform, or with tags, fused parts or gaps): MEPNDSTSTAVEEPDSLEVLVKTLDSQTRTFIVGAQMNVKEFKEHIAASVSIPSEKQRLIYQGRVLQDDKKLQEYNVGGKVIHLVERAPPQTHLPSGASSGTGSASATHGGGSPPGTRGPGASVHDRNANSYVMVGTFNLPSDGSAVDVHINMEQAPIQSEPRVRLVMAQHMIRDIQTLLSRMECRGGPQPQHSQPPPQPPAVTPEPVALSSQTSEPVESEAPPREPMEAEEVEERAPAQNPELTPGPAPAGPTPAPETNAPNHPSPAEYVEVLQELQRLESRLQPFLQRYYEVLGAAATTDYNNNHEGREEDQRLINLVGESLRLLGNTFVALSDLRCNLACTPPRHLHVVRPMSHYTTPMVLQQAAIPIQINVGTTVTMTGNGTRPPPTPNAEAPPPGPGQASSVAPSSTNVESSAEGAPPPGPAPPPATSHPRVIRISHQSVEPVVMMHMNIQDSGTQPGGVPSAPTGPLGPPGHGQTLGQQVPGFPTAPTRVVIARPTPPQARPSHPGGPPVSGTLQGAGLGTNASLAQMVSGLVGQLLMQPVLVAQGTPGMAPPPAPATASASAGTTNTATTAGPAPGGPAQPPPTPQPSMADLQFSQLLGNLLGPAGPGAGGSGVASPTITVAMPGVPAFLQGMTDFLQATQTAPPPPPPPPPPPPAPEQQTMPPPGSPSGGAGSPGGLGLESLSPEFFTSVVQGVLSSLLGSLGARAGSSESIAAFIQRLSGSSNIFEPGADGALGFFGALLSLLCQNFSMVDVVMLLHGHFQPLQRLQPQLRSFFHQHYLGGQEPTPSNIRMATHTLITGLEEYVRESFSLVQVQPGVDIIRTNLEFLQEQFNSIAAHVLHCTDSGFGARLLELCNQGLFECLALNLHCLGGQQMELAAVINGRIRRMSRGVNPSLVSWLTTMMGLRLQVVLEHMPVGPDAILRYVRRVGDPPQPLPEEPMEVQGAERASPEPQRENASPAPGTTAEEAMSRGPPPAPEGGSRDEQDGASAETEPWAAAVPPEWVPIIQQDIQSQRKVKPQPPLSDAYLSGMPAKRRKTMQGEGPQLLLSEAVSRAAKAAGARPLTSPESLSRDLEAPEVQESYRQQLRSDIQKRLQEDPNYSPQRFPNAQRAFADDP
row,Variant,effect of a mutation on the interaction
1,G137A,with no effect
2,L141A,decreasing interaction strength
3,K129A,decreasing interaction strength
4,L134A,with no effect
5,Q133A,with no effect
6,G135A,increasing interaction strength
7,T138A,increasing interaction strength
8,L142A,decreasing interaction strength
9,L140A,with no effect
10,H131A,with no effect
11,V139A,with no effect
12,P132A,with no effect
13,R143A,decreasing interaction strength
14,E130A,increasing interaction strength
